The source of these data is paper PMC8368038 (The Journal of Biological Chemistry, 2021).

The labels stand for the following.
B2: KANK1_ANKRD^SF (Trx-tagged) (domain or fragment, mouse, UniProt E9Q238 1081-1360, looked up)
chain: EPEKEEIRERYELSEKMLSACNLLKYNIKDPKALASKDMRICLNTLQHDWFRVSSQKSAVPAMVGDYIAAFEAVSPDVLRYIINMADGNGNTALHYSVFHSNFQIVKLLLDADVCNVDHQNKAGYTPIMLAALAAVEAEKDMQVVEELFSCGDVNAKASQAGQTALMLAVSHGRIDMVKGLLACGADVNIQDDEGSTALMCASEHGHVEIVKLLLAQPGCNGHLEDNDGSTALSIALEAGHKDIAVLLYAHLNFSKAQSPSTPRLGRKTSPGPTHRGSFD

In experiment [1] the target is eIF4A1_NTD (residues 1-238, crystallised) (mouse, UniProt P60843 1-238). The experiment can be described thus: crystal structure.
In experiment [2] the target is eukaryotic translation initiation factor 4A1 (eIF4A1), Trx-tagged (mouse, UniProt P60843 1-406). Description: ITC.
Another experiment addresses eIF4A1 Q148L (mouse, UniProt P60843 1-406, Q148L). The experiment can be described thus: ITC.
For experiment [3], the target named is B2. The experiment can be described thus: SEC.

B1: KANK1_ANKRD^SF (residues 1088-1338, crystallised) (domain or fragment, mouse, UniProt E9Q238 1088-1338, looked up)
chain: RERYELSEKMLSACNLLKYNIKDPKALASKDMRICLNTLQHDWFRVSSQKSAVPAMVGDYIAAFEAVSPDVLRYIINMADGNGNTALHYSVFHSNFQIVKLLLDADVCNVDHQNKAGYTPIMLAALAAVEAEKDMQVVEELFSCGDVNAKASQAGQTALMLAVSHGRIDMVKGLLACGADVNIQDDEGSTALMCASEHGHVEIVKLLLAQPGCNGHLEDNDGSTALSIALEAGHKDIAVLLYAHLNFSKAQ
Take B1: the “stoichiometry N” value in experiment [1] was 1.
Regarding B2, the binding result in experiment [2] is listed as “binds”. In the experiment with eIF4A1 Q148L, this molecule displayed a Kd of 1900 nM.

B3: eIF4A1 NTD (residues 1-237) (domain or fragment, mouse, UniProt P60843 1-237, looked up)
chain: MSASQDSRSRDNGPDGMEPEGVIESNWNEIVDSFDDMNLSESLLRGIYAYGFEKPSAIQQRAILPCIKGYDVIAQAQSGTGKTATFAISILQQIELDLKATQALVLAPTRELAQQIQKVVMALGDYMGASCHACIGGTNVRAEVQKLQMEAPHIIVGTPGRVFDMLNRRYLSPKYIKMFVLDEADEMLSRGFKDQIYDIFQKLNSNTQVVLLSATMPSDVLEVTKKFMRDPIRILVK
As for B3, the binding result in experiment [3] was “binds”.
